Results taken from US20110021548A1, “INHIBITORS OF MALT1 PROTEOLYTIC ACTIVITY AND USES THEREOF” (priority 2007, published 2011).
Entries after “also recorded” stand apart in the source; their conditions may differ. code Z = not defined here

Columns and labels:
Experiment in all cases: MALT1 paracaspase assay (Ac-LSSR-AMC cleavage, AMC release)
MALT1 [1] = type: biochemical, human; settings: for Inhibition of the MALT1 paracaspase activity by A. thaliana serpin: FIG. 11, several serpin concentrations
MALT1 [2] = target: T1, MALT1 (Homo sapiens, UniProt Q9UDY8); type: biochemical; settings: bio-IP purified MALT1 from HEK-293T cells; substrate 100 μM; inhibitor 100 μM (equimolar)
T1 construct: made in house
T1 sequence (Q9UDY8 2-824): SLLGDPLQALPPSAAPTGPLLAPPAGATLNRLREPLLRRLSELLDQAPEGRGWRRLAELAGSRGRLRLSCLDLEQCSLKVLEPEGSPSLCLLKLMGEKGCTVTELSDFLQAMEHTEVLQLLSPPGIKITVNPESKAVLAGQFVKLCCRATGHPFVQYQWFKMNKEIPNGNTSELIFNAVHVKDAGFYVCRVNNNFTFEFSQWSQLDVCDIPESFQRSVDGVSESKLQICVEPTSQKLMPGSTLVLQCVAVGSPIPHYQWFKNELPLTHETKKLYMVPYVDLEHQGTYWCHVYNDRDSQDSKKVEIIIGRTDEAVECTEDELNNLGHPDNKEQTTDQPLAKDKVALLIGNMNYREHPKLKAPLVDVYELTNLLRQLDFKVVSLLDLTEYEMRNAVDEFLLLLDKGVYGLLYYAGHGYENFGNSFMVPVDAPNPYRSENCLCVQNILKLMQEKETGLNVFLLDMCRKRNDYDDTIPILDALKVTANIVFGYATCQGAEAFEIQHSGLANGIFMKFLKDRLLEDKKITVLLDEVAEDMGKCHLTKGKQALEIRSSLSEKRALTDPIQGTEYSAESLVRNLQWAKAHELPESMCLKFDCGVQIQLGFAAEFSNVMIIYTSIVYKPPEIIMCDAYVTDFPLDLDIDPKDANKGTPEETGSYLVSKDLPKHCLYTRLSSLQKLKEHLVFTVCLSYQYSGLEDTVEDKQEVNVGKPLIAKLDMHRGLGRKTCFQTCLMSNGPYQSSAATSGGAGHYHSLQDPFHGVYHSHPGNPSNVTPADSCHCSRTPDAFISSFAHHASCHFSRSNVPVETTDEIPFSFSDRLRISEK

MALT1 [3] = target: T2, MALT1 (Homo sapiens, UniProt Q9UDY8); type: biochemical; settings: recombinant MALT1 p20 fragment; substrate 100 μM; inhibitor 100 μM
T2 construct: made in house
T2 sequence (Q9UDY8 334-824): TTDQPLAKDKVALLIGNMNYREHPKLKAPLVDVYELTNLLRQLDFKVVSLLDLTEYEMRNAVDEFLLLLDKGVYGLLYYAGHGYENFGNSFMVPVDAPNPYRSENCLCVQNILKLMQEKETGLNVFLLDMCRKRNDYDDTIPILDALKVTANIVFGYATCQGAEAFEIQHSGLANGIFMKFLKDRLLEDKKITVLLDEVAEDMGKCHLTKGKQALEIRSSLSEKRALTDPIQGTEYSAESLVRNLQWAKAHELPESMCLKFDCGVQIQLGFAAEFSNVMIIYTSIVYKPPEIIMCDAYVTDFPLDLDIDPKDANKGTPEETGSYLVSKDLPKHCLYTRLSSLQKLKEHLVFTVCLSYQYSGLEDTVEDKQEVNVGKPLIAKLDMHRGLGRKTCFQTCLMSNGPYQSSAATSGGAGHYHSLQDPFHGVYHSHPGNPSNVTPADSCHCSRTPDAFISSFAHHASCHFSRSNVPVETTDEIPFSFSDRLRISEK

Molecule | Inhibition of the malt paracaspase activity in small compound screening (MALT1 [1]; FIG. 12, different concentrations) | Inhibition of Ac-LSSR-AMC cleavage by bio-IP purified MALT1 (MALT1 [2]) | Inhibition of Ac-LSSR-AMC cleavage by recombinant MALT1 (MALT1 [3]) | Inhibition of the MALT1 paracaspase activity by A. thaliana serpin (MALT1 [1])
Cc1ccc(-c2ccc(C=C3C(=O)NC(=S)NC3=O)o2)cc1Cl [Inh03, 5-{[5-(3-chloro-4-methylphenyl)-2-furyl]methylene}-2-thioxodihydro-4,6(1H,5H)-pyrimidinedione] | Inhibitory effect | – | – | –
Z-GASR-CHO: peptide derivate (tetrapeptide GASR, SEQ ID NO:2), inhibitor of MALT1 proteolytic activity ({code Z}-GASR-aldehyde; reading uncertain; also: printed as Z-GASR-CHO) | – | efficiently blocked | completely blocked | –
Z-LSSR-CHO: peptide derivate (tetrapeptide LSSR, SEQ ID NO:1), inhibitor of MALT1 proteolytic activity, purchased from Anaspec ({code Z}-LSSR-aldehyde; reading uncertain; also: printed as Z-LSSR-CHO) | – | inhibits MALT1 proteolytic activity; also recorded: efficiently blocked | completely blocked | –
A. thaliana serpin (AT1g47710): Arabidopsis thaliana serpin (AT1g47710), indicated as serpin-wt (protein) MDVRESISLQNQVSMNLAKHVITTVSQNSNVIFSPASINVVLSIIAAGSAGATKDQILSFLKFSSTDQLNSFSSEIVSAVLADGSANGGPKLSVANGAWIDKSLSFKPSFKQLLEDSYKAASNQADFQSKAVEVIAEVNSWAEKETNGLITEVLPEGSADSMTKLIFANALYFKGTWNEKFDESLTQEGEFHLLDGNKVTAPFMTSKKKQYVSAYDGFKVLGLPYLQGQDKRQFSMYFYLPDANNGLSDLLDKIVSTPGFLDNHIPRRQVKVREFKIPKFKFSFGFDASNVLKGLGLTSPFSGEEGLTEMVESPEMGKNLCVSNIFHKACIEVNEEGTEAAAASAGVIKLRGLLMEEDEIDFVADHPFLLVVTENITGVVLFIGQVVDPLH | – | – | – | possible, but only at relatively high concentrations
IKLA-mutant: mutant serpin in which the reactive center loop has been replaced by the sequence IKLA (SEQ ID NO:16) (protein) MDVRESISLQNQVSMNLAKHVITTVSQNSNVIFSPASINVVLSIIAAGSAGATKDQILSFLKFSSTDQLNSFSSEIVSAVLADGSANGGPKLSVANGAWIDKSLSFKPSFKQLLEDSYKAASNQADFQSKAVEVIAEVNSWAEKETNGLITEVLPEGSADSMTKLIFANALYFKGTWNEKFDESLTQEGEFHLLDGNKVTAPFMTSKKKQYVSAYDGFKVLGLPYLQGQDKRQFSMYFYLPDANNGLSDLLDKIVSTPGFLDNHIPRRQVKVREFKIPKFKFSFGFDASNVLKGLGLTSPFSGEEGLTEMVESPEMGKNLCVSNIFHKACIEVNEEGTEAAAASAGVIKLAGLLMEEDEIDFVADHPFLLVVTENITGVVLFIGQVVDPLH | – | – | – | performing better than wild type serpin at higher concentrations
